Earlier results, collected in paper PMC4246237.
Where two headings read alike, the source gives them in different places.

What was measured:
AVP (Human adenovirus 2) [1] = biological target: AVP (Human adenovirus 2) (UniProt P03252)
AVP (Human adenovirus 2) [2] = biological target: AVP (Human adenovirus 2) (UniProt P03252); remark: listed apart in the source

Chain of UniProt P03252 (P03252 whole entry): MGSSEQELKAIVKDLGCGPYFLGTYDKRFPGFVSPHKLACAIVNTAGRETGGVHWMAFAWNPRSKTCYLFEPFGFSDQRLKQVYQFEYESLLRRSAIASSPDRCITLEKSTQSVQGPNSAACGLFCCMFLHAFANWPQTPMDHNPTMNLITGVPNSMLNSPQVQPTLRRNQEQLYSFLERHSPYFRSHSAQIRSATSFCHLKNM

With pVIc pVIc (from UniProt P03274) as the substance, how does the Kd (AVP (Human adenovirus 2) [1]) read?
Its Kd is 4400 nM.

And the Kd (AVP (Human adenovirus 2) [2])?
Its Kd is 90 nM.
